Test results published in patent publication US20040110252A1, “Yeast-based assay” (priority 2000, published 2004).
Where two headings read alike, the source gives them in different places.

Tests used:
[1] = test system: S. cerevisiae cells; conditions: cited from earlier work
[2] = test system: Sz. pombe cells; conditions: cited from earlier work
[3] = biological target: P-factor receptor (encoded by the mam2 gene) (Schizosaccharomyces pombe) (UniProt Q00619)

Substance	Sensitivity of cells to the toxin ([1]; S. cerevisiae spheroplasts (cell wall enzymatically removed))	Sensitivity of cells to the toxin ([1]; intact S. cerevisiae cells)	Sensitivity of cells to the toxin [2]	colony formation of sxa2>ura4 reporter cells on plates lacking uracil with different concentrations of P-factor [3]
Diphtheria toxin	sensitive	resistant	sensitive	–
P-factor mating pheromone (peptide)	–	–	–	> 10 units/ml
